According to patent US20200317768A1 (published 2020):

T1: cynomolgus monkey FcγRIIa2 extracellular domain, C-terminal His-tag (cynomolgus monkey)
T1 construct: also called cyno FcγRIIa2; cynoFcgRIIa2; not shown: His-tag added to C-terminus
T1 chain: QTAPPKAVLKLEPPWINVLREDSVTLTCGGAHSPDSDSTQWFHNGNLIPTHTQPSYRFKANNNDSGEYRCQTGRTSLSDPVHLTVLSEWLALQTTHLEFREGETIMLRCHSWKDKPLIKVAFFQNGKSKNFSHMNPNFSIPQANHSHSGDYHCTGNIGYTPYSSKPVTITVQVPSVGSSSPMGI

T2: cynomolgus monkey FcγRIIa3 extracellular domain, C-terminal His-tag (cynomolgus monkey)
T2 construct: also called cyno FcγRIIa3; cynoFcgRIIa3; not shown: His-tag added to C-terminus
T2 chain: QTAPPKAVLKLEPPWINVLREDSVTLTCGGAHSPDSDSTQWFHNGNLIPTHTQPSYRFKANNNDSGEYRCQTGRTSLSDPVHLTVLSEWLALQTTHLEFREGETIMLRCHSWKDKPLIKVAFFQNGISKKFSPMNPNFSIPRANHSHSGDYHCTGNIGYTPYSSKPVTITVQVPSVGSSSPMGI

T3: human FcγRIIb extracellular domain, C-terminal His-tag (human, UniProt P31994 43-217)
T3 construct: also called FcgRIIb (human); not shown: His-tag added to C-terminus
T3 sequence: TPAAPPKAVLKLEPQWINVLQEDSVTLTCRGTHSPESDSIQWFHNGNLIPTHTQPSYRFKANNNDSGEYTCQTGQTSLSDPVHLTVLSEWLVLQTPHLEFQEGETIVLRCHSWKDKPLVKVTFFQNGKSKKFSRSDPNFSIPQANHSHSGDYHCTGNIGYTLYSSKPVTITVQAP

T4: human FcγRIIaR extracellular domain, C-terminal His-tag (human, UniProt P12318 34-217)
T4 construct: also called human FcγRIIa (type R); FcgRIIaR; not shown: His-tag added to C-terminus
T4 chain: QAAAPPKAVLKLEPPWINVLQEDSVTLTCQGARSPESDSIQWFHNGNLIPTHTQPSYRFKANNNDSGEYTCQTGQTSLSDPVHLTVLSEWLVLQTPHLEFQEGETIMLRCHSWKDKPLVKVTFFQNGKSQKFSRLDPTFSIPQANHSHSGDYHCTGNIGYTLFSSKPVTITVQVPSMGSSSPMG

T5: human FcγRIIaH extracellular domain, C-terminal His-tag (human, UniProt P12318 34-217)
T5 construct: also called human FcγRIIa (type H); FcgRIIaH; not shown: His-tag added to C-terminus
T5 sequence: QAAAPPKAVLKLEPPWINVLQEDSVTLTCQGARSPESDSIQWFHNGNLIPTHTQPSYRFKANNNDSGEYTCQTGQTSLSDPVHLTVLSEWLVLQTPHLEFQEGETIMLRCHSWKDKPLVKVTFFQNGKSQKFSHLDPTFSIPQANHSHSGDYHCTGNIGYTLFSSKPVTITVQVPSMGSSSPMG

T6: cynomolgus monkey FcγRIIa1 extracellular domain, C-terminal His-tag (cynomolgus monkey)
T6 construct: also called cyno FcγRIIa1; cynoFcgRIIa1; not shown: His-tag added to C-terminus
T6 chain: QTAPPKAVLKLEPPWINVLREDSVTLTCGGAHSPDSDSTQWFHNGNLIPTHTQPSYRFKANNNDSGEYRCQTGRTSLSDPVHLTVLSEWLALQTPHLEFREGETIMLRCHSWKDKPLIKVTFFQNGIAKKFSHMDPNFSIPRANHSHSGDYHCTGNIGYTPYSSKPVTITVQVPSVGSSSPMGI


What was measured:
Experiment in all cases: SPR (Biacore), antibody captured, FcgR analyte, 25 C
[1] = biological target: T1, cynomolgus monkey FcγRIIa2 …
[2] = biological target: T2, cynomolgus monkey FcγRIIa3 …
[3] = biological target: T3, human FcγRIIb extracellular domain, …
[4] = biological target: T7, human FcγRIIIaV extracellular domain, C-terminal His-tag (human, UniProt P08637 17-208)
T7 construct: also called FcgRIIIaV; not shown: His-tag added to C-terminus
T7 sequence (P08637 17-208 F176V): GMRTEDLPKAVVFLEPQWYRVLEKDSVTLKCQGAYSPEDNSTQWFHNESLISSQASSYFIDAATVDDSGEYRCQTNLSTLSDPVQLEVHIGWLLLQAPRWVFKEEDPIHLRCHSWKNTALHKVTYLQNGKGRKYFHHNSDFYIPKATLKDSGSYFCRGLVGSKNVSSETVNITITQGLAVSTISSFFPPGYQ

[5] = biological target: T4, human FcγRIIaR extracellular domain, …
[6] = biological target: T5, human FcγRIIaH extracellular domain, …
[7] = biological target: T6, cynomolgus monkey FcγRIIa1 …

| Kd [1] [nM] | Kd [2] [nM] | Kd [3] [nM] | Kd [4] [nM] | Kd [5] [nM] | Kd [6] [nM] | Kd [7] [nM] | Binder |
| --- | --- | --- | --- | --- | --- | --- | --- |
| 520 | 1300 | 360 | 11000 | 630 | 350 | 530 | M103205H795-MY213/M103202L889-SK1 (antibody, human IgG1, kappa) heavy: QVTLKESGPVLVKPTETLTLTCTVSGIDLSHDDISWVRQAPGKGLEWVGIISYAGSTYYASWAKGRLTISKDTSKNQVVLTMTNMDPVDTATYYCARGVPAYSHGGDLWGQGTLVTVSSASTKGPSVFPLAPSSKSTSGGTAALGCLVKDYFPEPVTVSWNSGALTSGVHTFPAVLQSSGLYSLSSVVTVPSSSLGTQTYICNVNHKPSNTKVDKKVEPKSCDKTHTCPPCPAPELLNGPSVFLFPPKPKDTLMISRTPEVTCVVVDVSDEDPEVKFNWYVDGVEVHNAKTKPREEQYNSTYRVVSVLTVLHQDWLNGKEYKCKVSNKALPKPIEKTISKAKGQPREPQVYTLPPSREEMTKNQVSLTCLVKGFYPSDIAVEWESNGQPENNYKTTPKVLDSDGSFFLYSKLTVDKSRWQQGNVFSCSVMHEALHNHYTQKSLSLSP light: DIVMTQSPATLSLSPGERATLSCTSSQSVYHANWLSWFQQKPGQPPKLLIYWASTLAYGVPSRFSGSGSGTDFTLTISSLQPEDAATYYCAGGYGGGRYAFGQGTKVEIKRTVAAPSVFIFPPSDEQLKSGTASVVCLLNNFYPREAKVQWKVDNALQSGNSQESVTEQDSKDSTYSLSSTLTLSKADYEKHKVYACEVTHQGLSSPVTKSFNRGEC |
| 2600 | 6400 | 2100 | 1100 | 720 | 230 | 2300 | M103205H795-MY269/M103202L889-SK1 (antibody, human IgG1, kappa) heavy: QVTLKESGPVLVKPTETLTLTCTVSGIDLSHDDISWVRQAPGKGLEWVGIISYAGSTYYASWAKGRLTISKDTSKNQVVLTMTNMDPVDTATYYCARGVPAYSHGGDLWGQGTLVTVSSASTKGPSVFPLAPSSKSTSGGTAALGCLVKDYFPEPVTVSWNSGALTSGVHTFPAVLQSSGLYSLSSVVTVPSSSLGTQTYICNVNHKPSNTKVDKKVEPKSCDKTHTCPPCPAPELLMGPSVFLFPPKPKDTLMISRTPEVTCVVVDVSDEDPEVKFNWYVDGVEVHNAKTKPREEQYNSTYRVVSVLTVLHQDWLNGKEYKCKVSNKALPKPIEKTISKAKGQPREPQVYTLPPSREEMTKNQVSLTCLVKGFYPSDIAVEWESNGQPENNYKTTPKVLDSDGSFFLYSKLTVDKSRWQQGNVFSCSVMHEALHNHYTQKSLSLSP light: DIVMTQSPATLSLSPGERATLSCTSSQSVYHANWLSWFQQKPGQPPKLLIYWASTLAYGVPSRFSGSGSGTDFTLTISSLQPEDAATYYCAGGYGGGRYAFGQGTKVEIKRTVAAPSVFIFPPSDEQLKSGTASVVCLLNNFYPREAKVQWKVDNALQSGNSQESVTEQDSKDSTYSLSSTLTLSKADYEKHKVYACEVTHQGLSSPVTKSFNRGEC |
| 4000 | 5500 | 340 | 91000 | 160 | 2300 | 3500 | M103205H795-MY219/M103202L889-SK1 (antibody, human IgG1, kappa) heavy: QVTLKESGPVLVKPTETLTLTCTVSGIDLSHDDISWVRQAPGKGLEWVGIISYAGSTYYASWAKGRLTISKDTSKNQVVLTMTNMDPVDTATYYCARGVPAYSHGGDLWGQGTLVTVSSASTKGPSVFPLAPSSKSTSGGTAALGCLVKDYFPEPVTVSWNSGALTSGVHTFPAVLQSSGLYSLSSVVTVPSSSLGTQTYICNVNHKPSNTKVDKKVEPKSCDKTHTCPPCPAPELLGYPSVFLFPPKPKDTLMISRTPEVTCVVVDVSDEDPEVKFNWYVDGVEVHNAKTKPREEQYNSTYRVVSVLTVLHQDWLNGKEYKCKVSNKALPKPIEKTISKAKGQPREPQVYTLPPSREEMTKNQVSLTCLVKGFYPSDIAVEWESNGQPENNYKTTPPVLDSDGSFFLYSKLTVDKSRWQQGNVFSCSVMHEALHNHYTQKSLSLSP light: DIVMTQSPATLSLSPGERATLSCTSSQSVYHANWLSWFQQKPGQPPKLLIYWASTLAYGVPSRFSGSGSGTDFTLTISSLQPEDAATYYCAGGYGGGRYAFGQGTKVEIKRTVAAPSVFIFPPSDEQLKSGTASVVCLLNNFYPREAKVQWKVDNALQSGNSQESVTEQDSKDSTYSLSSTLTLSKADYEKHKVYACEVTHQGLSSPVTKSFNRGEC |
| 4200 | 5900 | 1900 | 9200 | 690 | 820 | 4500 | M103205H795-MY242/M103202L889-SK1 (antibody, human IgG1, kappa) heavy: QVTLKESGPVLVKPTETLTLTCTVSGIDLSHDDISWVRQAPGKGLEWVGIISYAGSTYYASWAKGRLTISKDTSKNQVVLTMTNMDPVDTATYYCARGVPAYSHGGDLWGQGTLVTVSSASTKGPSVFPLAPSSKSTSGGTAALGCLVKDYFPEPVTVSWNSGALTSGVHTFPAVLQSSGLYSLSSVVTVPSSSLGTQTYICNVNHKPSNTKVDKKVEPKSCDKTHTCPPCPAPELLGGISVFLFPPKPKDTLMISRTPEVTCVVVDVSDEDPEVKFNWYVDGVEVHNAKTKPREEQYNSTYRVVSVLTVLHQDWLNGKEYKCKVSNKALPKPIEKTISKAKGQPREPQVYTLPPSREEMTKNQVSLTCLVKGFYPSDIAVEWESNGQPENNYKTTPKVLDSDGSFFLYSKLTVDKSRWQQGNVFSCSVMHEALHNHYTQKSLSLSP light: DIVMTQSPATLSLSPGERATLSCTSSQSVYHANWLSWFQQKPGQPPKLLIYWASTLAYGVPSRFSGSGSGTDFTLTISSLQPEDAATYYCAGGYGGGRYAFGQGTKVEIKRTVAAPSVFIFPPSDEQLKSGTASVVCLLNNFYPREAKVQWKVDNALQSGNSQESVTEQDSKDSTYSLSSTLTLSKADYEKHKVYACEVTHQGLSSPVTKSFNRGEC |
| 2500 | 2500 | 130 | 18000 | 62 | 1300 | 1900 | M103205H795-MY227/M103202L889-SK1 (antibody, human IgG1, kappa) heavy: QVTLKESGPVLVKPTETLTLTCTVSGIDLSHDDISWVRQAPGKGLEWVGIISYAGSTYYASWAKGRLTISKDTSKNQVVLTMTNMDPVDTATYYCARGVPAYSHGGDLWGQGTLVTVSSASTKGPSVFPLAPSSKSTSGGTAALGCLVKDYFPEPVTVSWNSGALTSGVHTFPAVLQSSGLYSLSSVVTVPSSSLGTQTYICNVNHKPSNTKVDKKVEPKSCDKTHTCPPCPAPELLGYPSVFLFPPKPKDTLMISRTPEVTCVVVDVSDEDPEVKFNWYVDGVEVHNAKTKPREEQYNSTYRVVSVLTVLHQDWLNGKEYKCKVSNKALPKPIEKTISKAKGQPREPQVYTLPPSREEMTKNQVSLTCLVKGFYPSDIAVEWESNGQPENNYKTTPKVLDSDGSFFLYSKLTVDKSRWQQGNVFSCSVMHEALHNHYTQKSLSLSP light: DIVMTQSPATLSLSPGERATLSCTSSQSVYHANWLSWFQQKPGQPPKLLIYWASTLAYGVPSRFSGSGSGTDFTLTISSLQPEDAATYYCAGGYGGGRYAFGQGTKVEIKRTVAAPSVFIFPPSDEQLKSGTASVVCLLNNFYPREAKVQWKVDNALQSGNSQESVTEQDSKDSTYSLSSTLTLSKADYEKHKVYACEVTHQGLSSPVTKSFNRGEC |
